According to patent publication US20260092110A1 (Kyowa Kirin, published 2026):

T1: human MOG (hMOG) expressed on HEK293, Expi293F or L929 cells (human, UniProt Q16653 30-247)
T1 construct: also called hMOG/HEK293; hMOG/HEK293F
T1 chain: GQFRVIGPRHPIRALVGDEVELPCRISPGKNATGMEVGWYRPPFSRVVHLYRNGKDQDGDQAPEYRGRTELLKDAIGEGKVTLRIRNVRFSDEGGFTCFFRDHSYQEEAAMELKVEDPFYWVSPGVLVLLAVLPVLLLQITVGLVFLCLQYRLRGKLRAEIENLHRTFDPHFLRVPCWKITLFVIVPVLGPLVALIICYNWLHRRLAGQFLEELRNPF

B1: MOG456 antibody (anti-MOG scFv displayed on phage, pCANTAB_MOG456) (scFv)
scFv: EVQLVESGGGLVKPGGSLRLSCAASGFTFSSYSMHWVRQAPGKGLEWVSSIGSRSRYIYYADSVKGRFTISRDNAKNSLYLQMNSLRAEDTAVYYCAKGYYDILTGSLFDYWGQGTLVTVSSGGGGSGGRASGGGGSDIVMTQSPSSLSASVGDRVTITCRASQGISSALAWYQQKPGKAPKLLIYDASSLESGVPSRFSGSGSGTDFTLTISSLQPEDFATYYCQQFNSYPWTFGQGTKVEIK
B2: MOG470 (scFv phage clone similar to MOG329 antibody) (scFv)
scFv: QVQLVESGGGLVQPGGSLRLSCAASGFTFSSYAMNWVRQAPGKGLEWVSAISGSGGSTYYADSVKGRFTISRDNSKNTLYLQVNSLRAEDTAVYYCARDYGGISPFDYWGQGTLVTVSSGGGGSGGRASGGGGSEIVMTQSPATLSLSPGERATLSCRASQSVSSYLAWYQQKPGQAPRLLIYDASNRATGIPARFSGSGSGTDFTLTISRLEPEDFAVYYCQQYGSSPYTFGQGTRLEIK
B3: MOG352 (scFv phage clone similar to MOG310 antibody) (scFv)
scFv: EVQLVQSGAEVKKPGSSVKVSCKASGGTFSRYAINWVRQAPGQGLEWMGGIIPMFSTVNYAQKFQGRVTITADESTSTAYMELSSLRSEDTAVYYCARDWAVAGMGFDYWGQGTLVTVSSGGGGSGGRASGGGGSAIQMTQSPSSVSASVGDRVTITCRASQGISSWLAWYQHKPGKAPKSLIYAASSLQSGVPSRFSGSGSGTDFTLTISSLQPEDFATYYCQQYNSYPLTFGGGTKVDIK
B4: MOG357 (scFv phage clone similar to MOG303 antibody) (scFv)
scFv: EVQLVETGGGLVQPGGSLRLSCAASGFTFSSYAMSWVRQAPGKGLEWVSDINHSGGSTYYADSVKGRFTISRDNSKHTLYLQMNSLRAEDTAVYYCAKDYYDILTGSFFDYWGQGTLVTVSSGGGGSGGRASGGGGSDIVMTQSPSSLSASVGDRVTITCRASQGISSALAWYQQKPGKAPKLLIYDASSLESGVPSRFSGSGSGTDFTLTISSLQPEDFATYYCQQFNSYPWTFGQGTKVEIK
B5: MOG316 (scFv phage clone similar to MOG310 antibody) (scFv)
scFv: EVQLVQSGAEVKKPGSSVKVSCKASGGTFSRYAISWVRQAPGQGLEWMGGIIPMFNTANYAQKFQGRVTITADESTSTAYMELSSLRSEDTAVYYCARDWAVAGMGFNYWGQGTLVTVSSGGGGSGGRASGGGGSDIQMTQSPSSLSASVGDRVTITCRASQGINSALAWYQQKPGKAPKLLIYAASSLQSGVPSRFSGSGSGTDFTLTISSLQPEDFATYYCQQYNSYPITFGQGTRLEIK
B6: MOG329 antibody (anti-MOG scFv displayed on phage, pCANTAB_MOG329) (scFv)
scFv: QVQLVESGGGLVQPGGSLRLSCAASGFAFRNYAMNWVRQAPGKGLEWVSAISGSGGSTYYADSVKGRFTISRDNSKNTLYLQMNSLRAEDTAVYYCARDYGGISPFDYWGQGTLVTVSSGGGGSGGRASGGGGSDIQLTQSPSSLSASVGDRVTITCRASQGISSALAWYQQKPGKAPKLLIYDASSLESGVPSRFSGSGSGTDFTLTISSLQPEDFATYYCQQFNSYPHTFGQGTKVDIK
B7: MOG338 (scFv phage clone similar to MOG310 antibody) (scFv)
scFv: QVQLVQSGAEVKKPGSSVKVSCKASGGTFSRYAISWVRQAPGQGLEWMGGIIPMFNTANYAQKFQGRVTITADESTSTAYMELSSLRSEDTAVYYCARDWAVAGMGFDPWGQGTLVTVSSGGGGSGGRASGGGGSEIVLTQSPATLSLSPGERATLSCRASQSVSSYLAWYQQKPGQAPRLLIYDASNRATGIPARFSGSGSGTDFTLTISSLEPEDFAVYYCQQRNNWPLTFGGGTKLEIK
B8: MOG308 (scFv phage clone similar to MOG310 antibody) (scFv)
scFv: EVQLVQSGAEVRKSGSSVKVSCKASGGTFSRYAISWVRQAPGQGLEWMGGIIPMFSTTNYAQKFQGRVTITADESTSTAYMELSSLRSEDTAVYYCARDWAVAGMGFAYWGQGTLVTVSSGGGGSGGRASGGGGSEIVMTQSPATLSLSPGERATLSCRASQSVSSYLAWYQQKPGQAPRLLIYDASNRATGIPARFSGSGSGTDFTLTISSLEPEDFAVYYCQQRSNWPPTFGQGTKVDIK
B9: AVM IgG4PE(R409K)_MOG01dscFv2 antibody (bispecific antibody)
heavy: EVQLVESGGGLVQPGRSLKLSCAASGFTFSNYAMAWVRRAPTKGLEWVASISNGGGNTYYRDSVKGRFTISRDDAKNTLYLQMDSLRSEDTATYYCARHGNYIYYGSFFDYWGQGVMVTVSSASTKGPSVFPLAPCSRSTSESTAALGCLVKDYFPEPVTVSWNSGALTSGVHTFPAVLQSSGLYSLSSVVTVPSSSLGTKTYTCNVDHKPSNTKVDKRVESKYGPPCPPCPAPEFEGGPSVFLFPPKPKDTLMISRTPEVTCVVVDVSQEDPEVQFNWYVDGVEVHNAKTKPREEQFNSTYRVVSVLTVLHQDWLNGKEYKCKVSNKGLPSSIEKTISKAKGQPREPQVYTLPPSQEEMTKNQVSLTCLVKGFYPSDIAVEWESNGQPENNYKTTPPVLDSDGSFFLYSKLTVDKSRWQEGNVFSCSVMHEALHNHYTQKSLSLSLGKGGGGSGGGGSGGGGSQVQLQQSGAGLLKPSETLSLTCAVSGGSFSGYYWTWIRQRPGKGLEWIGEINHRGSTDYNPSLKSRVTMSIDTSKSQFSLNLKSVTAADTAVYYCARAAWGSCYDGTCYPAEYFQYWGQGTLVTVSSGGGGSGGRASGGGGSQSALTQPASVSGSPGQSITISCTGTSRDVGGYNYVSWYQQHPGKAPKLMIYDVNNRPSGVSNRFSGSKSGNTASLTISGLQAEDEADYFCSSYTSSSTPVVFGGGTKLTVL
light: QFVLSQPNSVSTNLGSTVKLSCKRSTGNIGSNYVSWYQQHEGRSPTTMIYRDDKRPDGVPDRFSGSIDRSSDSALLTINNVQTEDEADYFCQSYSSGINIFGGGTKLTVLGQPKAAPSVTLFPPSSEELQANKATLVCLISDFYPGAVTVAWKADSSPVKAGVETTTPSKQSNNKYAASSYLSLTPEQWKSHRSYSCQVTHEGSTVEKTVAPTECS
notes: also called pCI-AVM-hLG4PE(R409K)_MOG01scFv2
B10: AVM IgG4PE(R409K)_MOG01dscFv9 antibody (bispecific antibody)
heavy: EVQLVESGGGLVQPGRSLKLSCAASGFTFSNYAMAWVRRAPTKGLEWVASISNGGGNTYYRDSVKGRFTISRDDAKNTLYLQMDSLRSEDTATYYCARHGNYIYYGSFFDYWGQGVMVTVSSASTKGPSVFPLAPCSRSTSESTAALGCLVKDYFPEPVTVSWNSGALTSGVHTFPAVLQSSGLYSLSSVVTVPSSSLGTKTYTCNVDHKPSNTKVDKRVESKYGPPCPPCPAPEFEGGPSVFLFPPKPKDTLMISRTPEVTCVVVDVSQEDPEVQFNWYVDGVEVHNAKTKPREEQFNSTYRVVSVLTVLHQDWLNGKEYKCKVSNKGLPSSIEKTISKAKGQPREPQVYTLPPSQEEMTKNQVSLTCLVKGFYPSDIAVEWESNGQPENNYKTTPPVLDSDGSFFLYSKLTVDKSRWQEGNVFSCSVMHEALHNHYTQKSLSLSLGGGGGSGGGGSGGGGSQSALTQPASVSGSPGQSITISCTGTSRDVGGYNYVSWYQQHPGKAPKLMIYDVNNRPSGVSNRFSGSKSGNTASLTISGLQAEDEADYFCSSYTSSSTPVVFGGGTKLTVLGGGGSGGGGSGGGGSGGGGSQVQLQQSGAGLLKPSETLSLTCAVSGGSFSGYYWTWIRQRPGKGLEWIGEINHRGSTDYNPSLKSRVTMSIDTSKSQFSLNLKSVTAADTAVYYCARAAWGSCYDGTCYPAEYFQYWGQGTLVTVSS
light: B9 light
notes: also called pCI-AVM-hLG4PE(R409K)_MOG01scFv9
B11: AVM IgG4PE(R409K)_MOG01dscFv4 antibody (bispecific antibody)
heavy: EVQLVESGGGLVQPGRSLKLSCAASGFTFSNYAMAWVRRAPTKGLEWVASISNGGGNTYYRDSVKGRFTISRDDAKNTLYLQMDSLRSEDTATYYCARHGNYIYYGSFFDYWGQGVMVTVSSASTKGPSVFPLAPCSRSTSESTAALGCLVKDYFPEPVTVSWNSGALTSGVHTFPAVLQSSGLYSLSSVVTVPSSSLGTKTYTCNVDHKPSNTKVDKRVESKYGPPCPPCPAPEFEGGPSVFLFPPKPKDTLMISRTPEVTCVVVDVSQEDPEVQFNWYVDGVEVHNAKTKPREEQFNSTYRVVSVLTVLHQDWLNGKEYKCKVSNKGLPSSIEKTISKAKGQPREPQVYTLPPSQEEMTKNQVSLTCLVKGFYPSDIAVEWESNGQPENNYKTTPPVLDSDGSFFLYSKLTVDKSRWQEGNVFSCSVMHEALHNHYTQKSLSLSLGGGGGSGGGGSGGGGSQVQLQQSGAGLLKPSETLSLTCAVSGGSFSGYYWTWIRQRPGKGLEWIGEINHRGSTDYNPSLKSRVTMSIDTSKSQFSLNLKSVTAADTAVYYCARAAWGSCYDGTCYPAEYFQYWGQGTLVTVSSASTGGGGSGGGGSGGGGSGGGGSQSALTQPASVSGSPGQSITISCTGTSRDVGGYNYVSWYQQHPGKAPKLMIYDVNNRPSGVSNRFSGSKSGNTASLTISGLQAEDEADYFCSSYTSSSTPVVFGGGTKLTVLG
light: B9 light
notes: also called pCI-AVM-hLG4PE(R409K)_MOG01scFv4
B12: AVM IgG4PE(R409K)_MOG01dscFv10 antibody (bispecific antibody)
heavy: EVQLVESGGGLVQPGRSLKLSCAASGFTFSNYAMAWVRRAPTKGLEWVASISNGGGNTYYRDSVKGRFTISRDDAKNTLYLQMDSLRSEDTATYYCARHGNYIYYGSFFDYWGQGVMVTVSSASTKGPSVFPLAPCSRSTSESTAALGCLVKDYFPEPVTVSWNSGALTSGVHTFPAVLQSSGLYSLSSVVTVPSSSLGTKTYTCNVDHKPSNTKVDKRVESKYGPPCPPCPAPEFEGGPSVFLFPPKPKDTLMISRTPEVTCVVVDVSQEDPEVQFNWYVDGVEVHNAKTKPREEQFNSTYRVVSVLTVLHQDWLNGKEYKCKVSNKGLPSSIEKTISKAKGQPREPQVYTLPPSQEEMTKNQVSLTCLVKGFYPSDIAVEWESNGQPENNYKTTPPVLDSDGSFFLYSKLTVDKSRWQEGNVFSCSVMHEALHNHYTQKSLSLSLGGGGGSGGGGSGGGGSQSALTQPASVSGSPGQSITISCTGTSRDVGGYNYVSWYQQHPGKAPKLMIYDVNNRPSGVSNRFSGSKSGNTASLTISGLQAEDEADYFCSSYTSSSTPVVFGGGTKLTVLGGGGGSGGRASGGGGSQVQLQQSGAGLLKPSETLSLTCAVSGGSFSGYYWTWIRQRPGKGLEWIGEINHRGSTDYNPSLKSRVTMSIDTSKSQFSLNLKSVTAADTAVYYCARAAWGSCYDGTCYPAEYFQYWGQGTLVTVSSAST
light: B9 light
notes: also called AVM IgG4PE(R409K)_MOG01dscFvlO antibody; pCI-AVM-hLG4PE(R409K)_MOG01scFv10
B13: AVM IgG4PE(R409K)_MOG01dscFv8 antibody (bispecific antibody)
heavy: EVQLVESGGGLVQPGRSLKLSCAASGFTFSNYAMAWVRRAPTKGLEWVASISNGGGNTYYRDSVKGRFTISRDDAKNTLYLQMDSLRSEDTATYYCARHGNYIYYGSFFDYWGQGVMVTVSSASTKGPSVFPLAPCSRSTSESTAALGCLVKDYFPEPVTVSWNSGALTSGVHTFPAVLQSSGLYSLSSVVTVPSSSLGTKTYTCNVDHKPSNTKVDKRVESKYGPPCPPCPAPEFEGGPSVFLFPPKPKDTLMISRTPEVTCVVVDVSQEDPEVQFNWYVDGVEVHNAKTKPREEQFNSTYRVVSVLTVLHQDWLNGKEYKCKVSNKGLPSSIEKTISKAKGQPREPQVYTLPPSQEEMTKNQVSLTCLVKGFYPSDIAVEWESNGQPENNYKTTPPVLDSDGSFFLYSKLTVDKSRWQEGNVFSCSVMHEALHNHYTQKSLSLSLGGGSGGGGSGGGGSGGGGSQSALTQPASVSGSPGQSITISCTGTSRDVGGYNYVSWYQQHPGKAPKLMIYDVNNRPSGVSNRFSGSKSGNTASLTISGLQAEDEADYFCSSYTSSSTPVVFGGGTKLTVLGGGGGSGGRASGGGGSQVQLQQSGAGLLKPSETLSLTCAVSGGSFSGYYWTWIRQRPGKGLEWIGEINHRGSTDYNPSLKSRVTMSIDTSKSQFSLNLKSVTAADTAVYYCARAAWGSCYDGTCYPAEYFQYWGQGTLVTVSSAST
light: B9 light
notes: also called pCI-AVM-hLG4PE(R409K)_MOG01scFv8
B14: AVM IgG4PE(R409K)_MOG01dscFv11 antibody (bispecific antibody)
heavy: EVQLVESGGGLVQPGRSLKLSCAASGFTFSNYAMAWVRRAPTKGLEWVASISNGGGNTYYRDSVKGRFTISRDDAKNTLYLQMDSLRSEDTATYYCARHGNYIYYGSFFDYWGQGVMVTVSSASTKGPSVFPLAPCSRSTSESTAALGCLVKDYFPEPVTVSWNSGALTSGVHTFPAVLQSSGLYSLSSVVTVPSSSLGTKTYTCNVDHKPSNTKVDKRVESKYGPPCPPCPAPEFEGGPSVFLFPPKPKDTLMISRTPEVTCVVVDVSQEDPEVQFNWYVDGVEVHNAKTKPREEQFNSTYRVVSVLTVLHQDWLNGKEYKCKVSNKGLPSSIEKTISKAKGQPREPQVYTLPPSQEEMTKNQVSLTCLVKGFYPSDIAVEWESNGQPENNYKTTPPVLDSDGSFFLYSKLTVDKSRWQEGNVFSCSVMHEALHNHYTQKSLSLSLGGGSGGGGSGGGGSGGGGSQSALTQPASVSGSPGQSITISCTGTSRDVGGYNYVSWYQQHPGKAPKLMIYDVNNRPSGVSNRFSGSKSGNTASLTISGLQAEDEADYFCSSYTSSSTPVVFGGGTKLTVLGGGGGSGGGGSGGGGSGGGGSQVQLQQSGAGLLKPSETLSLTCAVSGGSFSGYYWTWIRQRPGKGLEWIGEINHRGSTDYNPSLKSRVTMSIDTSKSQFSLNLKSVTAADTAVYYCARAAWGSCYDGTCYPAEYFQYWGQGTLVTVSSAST
light: B9 light
notes: also called pCI-AVM-hLG4PE(R409K)_MOG01scFv11
B15: MOG314 (scFv phage clone similar to MOG303 antibody) (scFv)
scFv: QVQLVESGGGLVQPGGSLRLSCAASGFTFSSYAMSWVRQAPGKGLEWVSAISGRGSSTYYADSVKGRFTISRDNSKNTLYLQMNSLRAEDTAVYYCAKGYYDILTGSFFDYWGQGTLVTVSSGGGGSGGRASGGGGSDIQLTQSPSSLSASVGDRVTITCRASQGISSALAWYQQKPGKAPKLLIYDASSLESGVPSRFSGSGSGTDFTLTISSLQPEDFATYYCQQFNSYPYTFGQGTKLEIK
B16: MOG315 (scFv phage clone similar to MOG303 antibody) (scFv)
scFv: EVQLVESGGGLVQPGGSLRLSCAASGFTFSTYAMSWVRQAPGKGLEWVSAISGSGVSTYYADSVKGRFTLSRDNSKNTLYLQMNSLRAEDTAVYYCAKAYYDILTGNFLDYWGQGTLVTVSSGGGGSGGRASGGGGSAIQLTQSPSSLSASVGDRVTITCRASQGISSALAWYQQKPGKAPKLLIYDASSLESGVPSRFSGSGSGTDFTLTISSLQPEDFATYYCQQFNSYPLTFGGGTKVEIK
B17: MOG476 (scFv phage clone similar to MOG303 antibody) (scFv)
scFv: EVQLVESGGGLVQPGGSLRLSCAASGFTFSSYAMNWVRQAPGKGLEWVSAISYSGRSTYYADSVKGRFTISRDNSKNTLYLQMNSLRAEDTAVYYCAKGLYDILTGGGFDYWGQGTLVTVSSGGGGSGGRASGGGGSDIQMTQSPSSLSASVGDRVTITCRASQGISSALAWYQQKPGKAPKLLIYDASSLESGVPSRFSGSGSGTDFTLTISSLQPEDFATYYCQQFNSYPSTFGQGTRLEIK
B18: MOG426 (scFv phage clone similar to MOG301 antibody) (scFv)
scFv: QVQLVQSGAEVKKPGASVKVSCKASGYSFNSYGINWVRQAPGQGLEWMGWISAYTGKTSYAQKVQGRVTMTTDRSTSTAYMELRSLRSDDTAMYYCAREYDILTGYSDAFDTWGQGTMVTVSSGGGGSGGRASGGGGSEIVLTQSPATLSLSPGERATLSCRASQSVSSYLAWYQQKPGQAPRLLIYDASNRATGIPARFSGSGSGTDFTLTISSLEPEDFAVYYCQQRGNWPLTFGGGTKLEIK

Legend:
[1] = target: extracellular domain protein of human MOG to which FLAG-Fc is added at the C-terminus (hMOG-FLAG-Fc) (human); experiment: phage ELISA
[2] = target: T1, human MOG (hMOG) expressed on HEK293, …; experiment: phage clone on hMOG/Expi293F cells
[3] = target: T1, human MOG (hMOG) expressed on HEK293, …; experiment: flow cytometry on L929 cells expressing human MOG (hMOG/L929); antibody titrated, RPE-labelled goat anti-human antibody
Source text: pEF6_hMOG obtained in Example 5 was introduced to mouse connective tissue-derived fibroblast L929 cells [American Type Culture Collection (ATCC) No.: CCL-1] using HilyMax (manufactured by Dojindo Laboratories). The gene-transfected cells were selected using an antibiotic substance, Blasticidin (manufactured by Invitrogen) and then cloned by the limiting dilution method. Using the L929 cells expressing hMOG on the cell surface (abbreviated as hMOG/L929 below), the reactivities of the bispecific antibodies were analyzed by the method described below.
The hMOG/L929 cells were suspended in a Staining Buffer (SB) of PBS containing 0.1% NaN₃ and 1% FBS and dispensed to a round-bottom 96-well plate (manufactured by Becton Dickinson). […] After suspending the pellets, the plate was left to stand at ice temperature for 30 minutes. The supernatants were removed after further centrifugation (2000 rpm, 4° C., two minutes), and the pellets were washed with SB. Then, 1 μg/mL RPE fluorescently labeled goat anti-human antibody (manufactured by Southern Biotech) was added, and the plate was incubated at ice temperature for 30 minutes. After washing with SB, the cells were suspended in SB, and the fluorescence intensities of the cells were measured with a flow cytometer FACS CANTO II (manufactured by Becton Dickinson). The results are shown in FIGS. 12A to 12C and FIGS. 13A and 13B.

Binder	binding result [1]	binding result [2]	binding result [3]
B1	binds	binds	–
B2	binds	binds	–
B3	binds	binds	–
B4	binds	binds	–
B5	binds	binds	–
B6	binds	binds	–
B7	binds	binds	–
B8	binds	binds	–
B9	–	–	binds
B10	–	–	binds
B11	–	–	binds
B12	–	–	binds
B13	–	–	binds
B14	–	–	binds
B15	binds	binds	–
B16	binds	binds	–
B17	binds	binds	–
B18	binds	binds	–
